Starred links: 1 amine or outer side, 2 acyl side, 3 side chain; linkers in the order of their positions; H or OH if unused. Non-standard residues stand in square brackets, D forms with d. Groups on a side chain read outwards from the residue. *: point of attachment. C20 diacid = O=C(O)CCCCCCCCCCCCCCCCCCC(=O)*; C18 diacid = O=C(O)CCCCCCCCCCCCCCCCC(=O)*; C16 diacid = O=C(O)CCCCCCCCCCCCCCC(=O)*; γGlu = O=C(O)[C@H](CCC(=O)[*:2])N[*:1]; C14 diacid = O=C(O)CCCCCCCCCCCCC(=O)*; AEEA = NCCOCCOCC(=O)O; Aib = CC(C)(N)C(=O)O; Ahx = NCCCCCC(=O)O
What was measured:
[1] = target: human GLP-1 receptor (human, UniProt P43220 24-463); assay: cell-based or functional assay
[2] = target: T1, human amylin-3 (a) receptor (human, UniProt P30988 25-474; O60896 24-148); assay: cell-based or functional assay
T1 sequence (looked up) 1: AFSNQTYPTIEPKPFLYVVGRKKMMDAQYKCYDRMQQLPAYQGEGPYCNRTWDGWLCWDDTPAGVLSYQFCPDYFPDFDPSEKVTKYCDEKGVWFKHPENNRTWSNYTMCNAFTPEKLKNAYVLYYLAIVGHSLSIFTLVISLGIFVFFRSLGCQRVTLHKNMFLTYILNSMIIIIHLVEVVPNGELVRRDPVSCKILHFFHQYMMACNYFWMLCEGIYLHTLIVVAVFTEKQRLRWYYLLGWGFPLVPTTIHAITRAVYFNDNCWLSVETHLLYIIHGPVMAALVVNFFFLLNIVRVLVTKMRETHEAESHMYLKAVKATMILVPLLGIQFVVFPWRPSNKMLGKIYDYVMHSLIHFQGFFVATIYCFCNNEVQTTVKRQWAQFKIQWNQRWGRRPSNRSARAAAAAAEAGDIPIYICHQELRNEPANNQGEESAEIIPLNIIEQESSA
T1 sequence (looked up) 2: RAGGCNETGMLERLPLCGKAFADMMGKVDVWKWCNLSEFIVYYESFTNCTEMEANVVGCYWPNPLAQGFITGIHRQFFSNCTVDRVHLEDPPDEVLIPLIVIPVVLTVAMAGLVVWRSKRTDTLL

Binder | Human GLP-1R potency [EC50 (pM)] [1] | Human AmyR3 potency [EC50 (pM)] [2]
Compound 0580 (peptide) peptide: H[Aib]EGTFTSDVSSYLEEQAARK([AEEA-AEEA-γGlu-C20 diacid])FIAWLVRGGASELSTAALGRLSAELHELATLPRTETGSGSP-NH2 | 7.4 pM | 9.3 pM
Compound 0009 (peptide) peptide: H[Aib]EGTFTSDVSSYLEGQAAREFIAWLVRGK([AEEA-AEEA-γGlu-C18 diacid])GEGEGEEASELSTAALGRLSAELHELATLPRTETGSGSP-NH2 | 7.9 pM | 49.5 pM
Compound 0661 (peptide) peptide: H[Aib]EGTFTSDVSSYLEEQAAREFIAWLVRGRK([AEEA-AEEA-AEEA-γGlu-C18 diacid])GGGGEASELSTAALGRLSAELHELATLPRTETGSGSP-NH2 | 2.8 pM | 14.4 pM
Compound 0663 (peptide) peptide: H[Aib]EGTFTSDVSSYLEEQAAREFIAWLVRGRK([AEEA-AEEA-AEEA-AEEA-γGlu-C20 diacid])GGGGEASELSTAALGRLSAELHELATLPRTETGSGSP-NH2 | 3.2 pM | 12.6 pM
Compound 0662 (peptide) peptide: H[Aib]EGTFTSDVSSYLEEQAAREFIAWLVRGRK([AEEA-AEEA-AEEA-AEEA-γGlu-C18 diacid])GGGGEASELSTAALGRLSAELHELATLPRTETGSGSP-NH2 | 3 pM | 14.6 pM
Compound 0638 (peptide) peptide: H[Aib]EGTFTSDVSSYLEEQAAREFIAWLVRGRK([AEEA-AEEA-γGlu-C20 diacid])GGGGSGGGEASELSTAALGRLSAELHELATLPRTETGSGSP-NH2 | 4.6 pM | 6.9 pM
Compound 0639 (peptide) peptide: H[Aib]EGTFTSDVSSYLEEQAARK([AEEA-AEEA-γGlu-C18 diacid])FIAWLVRGRGGGGGEASELSTAALGRLSAELHELATLPRTETGSGSP-NH2 | 1.5 pM | 4.6 pM
Compound 0660 (peptide) peptide: H[Aib]EGTFTSDVSSYLEEQAAREFIAWLVRGRK([AEEA-γGlu-C18 diacid])GGGGEASELSTAALGRLSAELHELATLPRTETGSGSP-NH2 | 3.9 pM | 12.7 pM
Compound 0578 (not fully specified (residue 21)) peptide: H[Aib]EGTFTSDVSK([AEEA-AEEA-γGlu-C16 diacid])YLEEQAARKFIAWLVRGRQEASELSTAALGRLSAELHELATLPRTETGSGSP-NH2 | 2.5 pM | 26.9 pM
Compound 0635 (not fully specified (residue 21)) peptide: H[Aib]EGTFTSDVSK([AEEA-AEEA-γGlu-C14 diacid])YLEEQAARKFIAWLVRGRK([AEEA-AEEA-γGlu-C14 diacid])GGEASELSTAALGRLSAELHELATLPRTETGSGSP-NH2 | 7.3 pM | 78.9 pM
Compound 0648 (peptide) peptide: HWEGTFTSDVSSYLEEQAAREFIAWLVRGRK([AEEA-AEEA-γGlu-C18 diacid])GGGGEASELSTAALGRLSAELHELATLPRTETGSGSP-NH2 | 17 pM | 9.2 pM
Compound 0632 (peptide) peptide: H[Aib]EGTFTSDVSK([γGlu-γGlu-γGlu-γGlu-C20 diacid])YLEEQAAREFIEWLVRGAAEASELSTAALGRLSAELHELATLPRTETGSGSP-NH2 | 18.8 pM | 148 pM
Compound 0581 (peptide) peptide: H[Aib]EGTFTSDVSSYLEEQAARK([AEEA-AEEA-γGlu-C20 diacid])FIEWLVRGASELSTAALGRLSAELHELATLPRTETGSGSP-NH2 | 17 pM | 26.4 pM
Compound 0659 (peptide) peptide: H[Aib]EGTFTSDVSSYLEEQAAREFIAWLVRGRK([Ahx-Ahx-γGlu-C20 diacid])GGGGEASELSTAALGRLSAELHELATLPRTETGSGSP-NH2 | 4.7 pM | 11.5 pM
